Data: patent publication US9637764B2, “Methods of producing 7-carbon chemicals via carbon chain elongation associated with cyclohexane carboxylate synthesis” (INVISTA North America S.á r.l., priority 2012, dated 2017)

Tests used:
Assay type in all cases: biochemical
[1] = Thioesterase enzyme activity assay, pimeloyl-CoA to pimelate (release of Coenzyme A, Ellman's reagent, absorbance at 412 nm); details: 667 μM pimeloyl-CoA, 0.8 μM enzyme, pH=7.4, 37° C., 20 min; compared to the empty vector control; FIG. 8
Method: A sequence encoding an N-terminal His tag was added to the tesB gene from Escherichia coli that encodes a thioesterase (SEQ ID NO 1, see FIG. 7A), such that an N-terminal HIS tagged thioesterase could be produced. The modified tesB gene was cloned into a pET15b expression vector under control of the T7 promoter. The expression vector was transformed into a BL21[DE3] E. coli host. The resulting recombinant E. coli strain was cultivated at 37° C. in a 500 mL shake flask culture containing 50 mL Luria Broth (LB) media and antibiotic selection pressure, with shaking at 230 rpm. The culture was induced overnight at 17° C. using 0.5 mM IPTG.
The pellet from the induced shake flask culture was harvested via centrifugation. The pellet was resuspended and lysed in Y-Per™ solution (ThermoScientific, Rockford, Ill.). The cell debris was separated from the supernatant via centrifugation. […]
The enzyme activity assay was performed in triplicate in a buffer composed of 50 mM phosphate buffer (pH=7.4), 0.1 mM Ellman's reagent, and 667 μM of pimeloyl-CoA (as substrate). […] The release of Coenzyme A was monitored by absorbance at 412 nm. The absorbance associated with the substrate only control, which contained boiled enzyme, was subtracted from the active enzyme assay absorbance and compared to the empty vector control.

[2] = Carboxylate reductase activity assay, pimelate to pimelate semialdehyde (NADPH consumption, absorbance at 340 nm); details: purified enzyme enhanced by the gene product of sfp, 2 mM pimelate, 1 mM ATP, 1 mM NADPH, pH=7.5, room temperature, 20 min; against the empty vector control; FIG. 10
Method: A sequence encoding a HIS-tag was added to the genes from Segniliparus rugosus and Segniliparus rotundus that encode the carboxylate reductases of SEQ ID NOs: 4 and 7, respectively (see FIGS. 7C and 7F), such that N-terminal HIS tagged carboxylate reductases could be produced. Each of the modified genes was cloned into a pET Duet expression vector along with a sfp gene encoding a HIS-tagged phosphopantetheine transferase from Bacillus subtilis, both under the T7 promoter. Each expression vector was transformed into a BL21[DE3] E. coli host and the resulting recombinant E. coli strains were cultivated at 37° C. in a 250 mL shake flask culture containing 50 mL LB media and antibiotic selection pressure, with shaking at 230 rpm. Each culture was induced overnight at 37° C. using an auto-induction media.
The pellet from each induced shake flask culture was harvested via centrifugation. Each pellet was resuspended and lysed via sonication, and the cell debris was separated from the supernatant via centrifugation. […]
Enzyme activity assays (i.e., from pimelate to pimelate semialdehyde) were performed in triplicate in a buffer composed of a final concentration of 50 mM HEPES buffer (pH=7.5), 2 mM pimelate, 10 mM MgCl2, 1 mM ATP and 1 mM NADPH. […] The consumption of NADPH was monitored by absorbance at 340 nm.

[3] = Carboxylate reductase activity assay, N7-acetyl-7-aminoheptanoate to N7-acetyl-7-aminoheptanal (NADPH consumption, absorbance at 340 nm); details: purified enzyme enhanced by the gene product of sfp, 2 mM N7-acetyl-7-aminoheptanoate, 1 mM ATP, 1 mM NADPH, pH=7.5, room temperature, 20 min; against the empty vector control; FIG. 12
Method: The activity of each of the N-terminal His-tagged carboxylate reductases of SEQ ID NOs: 3, 6, and 7 (see Examples 4, and FIGS. 7B, 7E, and 7F) for converting N7-acetyl-7-aminoheptanoate to N7-acetyl-7-aminoheptanal was assayed in triplicate in a buffer composed of a final concentration of 50 mM HEPES buffer (pH=7.5), 2 mM N7-acetyl-7-aminoheptanoate, 10 mM MgCl2, 1 mM ATP, and 1 mM NADPH. The assays were initiated by adding purified carboxylate reductase and phosphopantetheine transferase or the empty vector control to the assay buffer containing the N7-acetyl-7-aminoheptanoate then incubated at room temperature for 20 min. The consumption of NADPH was monitored by absorbance at 340 nm.

B1: tesB: Escherichia coli thioesterase encoded by tesB, GenBank Accession No. AAA24665.1 (protein, listed as Escherichia coli)
chain: MSQALKNLLTLLNLEKIEEGLFRGQSEDLGLRQVFGGQVVGQALYAAKETVPEERLVHSFHSYFLRPGDSKKPIIYDVETLRDGNSFSARRVAAIQNGKPIFYMTASFQAPEAGFEHQKTMPSAPAPDGLPSETQIAQSLAHLLPPVLKDKFICDRPLEVRPVEFHNPLKGHVAEPHRQVWIRANGSVPDDLRVHQYLLGYASDLNFLPVALQPHGIGFLEPGIQIATIDHSMWFHRPFNLNEWLLYSVESTSASSARGFVRGEFYTQDGVLVASTVQEGVMRNHN
thioesterase activity for converting pimeloyl-CoA to pimelate [1]: accepted pimeloyl-CoA as substrate

B2: SEQ ID NO 4: Segniliparus rugosus carboxylate reductase, Genbank Accession No. EFV11917.1 (protein, listed as Segniliparus rugosus)
chain: MGDGEERAKRFFQRIGELSATDPQFAAAAPDPAVVEAVSDPSLSFTRYLDTLMRGYAERPALAHRVGAGYETISYGELWARVGAIAAAWQADGLAPGDFVATVGFTSPDYVAVDLAAARSGLVSVPLQAGASLAQLVGILEETEPKVLAASASSLEGAVACALAAPSVQRLVVFDLRGPDASESAADERRGALADAEEQLARAGRAVVVETLADLAARGEALPEAPLFEPAEGEDPLALLIYTSGSTGAPKGAMYSQRLVSQLWGRTPVVPGMPNISLHYMPLSHSYGRAVLAGALSAGGTAHFTANSDLSTLFEDIALARPTFLALVPRVCEMLFQESQRGQDVAELRERVLGGRLLVAVCGSAPLSPEMRAFMEEVLGFPLLDGYGSTEALGVMRNGIIQRPPVIDYKLVDVPELGYRTTDKPYPRGELCIRSTSLISGYYKRPEITAEVFDAQGYYKTGDVMAEIAPDHLVYVDRSKNVLKLSQGEFVAVAKLEAAYGTSPYVKQIFVYGNSERSFLLAVVVPNAEVLGARDQEEAKPLIAASLQKIAKEAGLQSYEVPRDFLIETEPFTTQNGLLSEVGKLLRPKLKARYGEALEARYDEIAHGQADELRALRDGAGQRPVVETVVRAAVAISGSEGAEVGPEANFADLGGDSLSALSLANLLHDVFEVEVPVRIIIGPTASLAGIAKHIEAERAGASAPTAASVHGAGATRIRASELTLEKFLPEDLLAAAKGLPAADQVRTVLLTGANGWLGRFLALEQLERLARSGQDGGKLICLVRGKDAAAARRRIEETLGTDPALAARFAELAEGRLEVVPGDVGEPKFGLDDAAWDRLAEEVDVIVHPAALVNHVLPYHQLFGPNVVGTAEIIRLAITAKRKPVTYLSTVAVAAGVEPSSFEEDGDIRAVVPERPLGDGYANGYGNSKWAGEVLLREAHELVGLPVAVFRSDMILAHTRYTGQLNVPDQFTRLVLSLLATGIAPKSFYQQGAAGERQRAHYDGIPVDFTAEAITTLGAEPSWFDGGAGFRSFDVFNPHHDGVGLDEFVDWLIEAGHPISRIDDHKEWFARFETAVRGLPEAQRQHSLLPLLRAYSFPHPPVDGSVYPTGKFQGAVKAAQVGSDHDVPHLGKALIVKYADDLKALGLL
carboxylate reductase activity for converting pimelate to pimelate semialdehyde [2]: accepted pimelate as substrate

B3: SEQ ID NO 6: Mycobacterium massiliense carboxylate reductase, Genbank Accession No. EIV11143.1 (protein)
chain: MTNETNPQQEQLSRRIESLRESDPQFRAAQPDPAVAEQVLRPGLHLSEAIAALMTGYAERPALGERARELVIDQDGRTTLRLLPRFDTTTYGELWSRTTSVAAAWHHDATHPVKAGDLVATLGFTSIDYTVLDLAIMILGGVAVPLQTSAPASQWTTILAEAEPNTLAVSIELIGAAMESVRATPSIKQVVVFDYTPEVDDQREAFEAASTQLAGTGIALETLDAVIARGAALPAAPLYAPSAGDDPLALLIYTSGSTGAPKGAMHSENIVRRWWIREDVMAGTENLPMIGLNFMPMSHIMGRGTLTSTLSTGGTGYFAASSDMSTLFEDMELIRPTALALVPRVCDMVFQRFQTEVDRRLASGDTASAEAVAAEVKADIRDNLFGGRVSAVMVGSAPLSEELGEFIESCFELNLTDGYGSTEAGMVFRDGIVQRPPVIDYKLVDVPELGYFSTDKPHPRGELLLKTDGMFLGYYKRPEVTASVFDADGFYMTGDIVAELAHDNIEIIDRRNNVLKLSQGEFVAVATLEAEYANSPVVHQIYVYGSSERSYLLAVVVPTPEAVAAAKGDAAALKTTIADSLQDIAKEIQLQSYEVPRDFIIEPQPFTQGNGLLTGIAKLARPNLKAHYGPRLEQMYAEIAEQQAAELRALHGVDPDKPALETVLKAAQALLGVSSAELAADAHFTDLGGDSLSALSFSDLLRDIFAVEVPVGVIVSAANDLGGVAKFVDEQRHSGGTRPTAETVHGAGHTEIRAADLTLDKFIDEATLHAAPSLPKAAGIPHTVLLTGSNGYLGHYLALEWLERLDKTDGKLIVIVRGKNAEAAYGRLEEAFDTGDTELLAHFRSLADKHLEVLAGDIGDPNLGLDADTWQRLADTVDVIVHPAALVNHVLPYNQLFGPNVVGTAEIIKLAITTKIKPVTYLSTVAVAAYVDPTTFDEESDIRLISAVRPIDDGYANGYGNAKWAGEVLLREAHDLCGLPVAVFRSDMILAHSRYTGQLNVPDQFTRLILSLIATGIAPGSFYQAQTTGERPLAHYDGLPGDFTAEAITTLGTQVPEGSEGFVTYDCVNPHADGISLDNFVDWLIEAGYPIARIDNYTEWFTRFDTAIRGLSEKQKQHSLLPLLHAFEQPSAAENHGVVPAKRFQHAVQAAGIGPVGQDGTTDIPHLSRRLIVKYAKDLEQLGLL
modifications: Mycobacterium massiliense
carboxylate reductase activity for converting N7-acetyl-7-aminoheptanoate to N7-acetyl-7-aminoheptanal [3]: accepted N7-acetyl-7-aminoheptanoate as substrate
